# Test results as given in patent US20030022837A1 (Stanford University, published 2003).
# B1: Xenopus Emi1 (Early Mitotic Inhibitor 1), full-length wild type (other)
# chain: MMCGFASNQSPKKLSSKKSSATNVHLEISPVKHHPPCKVYENVQGSCLDSAICTTVAKCADLTDDLPVHNKENLLHRLNDLETNSYEEYSALQDSGYSSILQNDSPCQDETDRKVSDIQVRETPKNFMSYQRPFHTLSKINLPILRFEEAVCSTLKKMRKTNKKIDWNAVDVVCGGNYGLEHLIGKSMGLERFDILAELFHRDFKHLLTKILRHLSAMDLINVISVSTTWRKLLQKDNWAYNAYKLGCKELCEKRAKVSSHTATRDESLCRVPLASVQKVAASSLCTSKKQSKNKNGGLSCNRLAEFIEVAQTLKNDQSLKVCVDCGSPAKHDPCLHRAICTRESCKLDFCTRCSCKYHFSKSCLMSKPGSYRIPSEPLPGSKKSKQNLRRL
# notes: 392 residues; also called xEmi1; Emi1p
# Biological target: T1, His-Cdc20 (baculovirus-expressed human Cdc20) (human, UniProt Q12834 1-499)
# T1 construct: Also used for the Cdc20 baculovirus of the SF9 co-infection; also called purified baculovirus-expressed Cdc20; Baculovirus-expressed Cdc20; not shown: His tag
# T1 sequence (Q12834 whole entry): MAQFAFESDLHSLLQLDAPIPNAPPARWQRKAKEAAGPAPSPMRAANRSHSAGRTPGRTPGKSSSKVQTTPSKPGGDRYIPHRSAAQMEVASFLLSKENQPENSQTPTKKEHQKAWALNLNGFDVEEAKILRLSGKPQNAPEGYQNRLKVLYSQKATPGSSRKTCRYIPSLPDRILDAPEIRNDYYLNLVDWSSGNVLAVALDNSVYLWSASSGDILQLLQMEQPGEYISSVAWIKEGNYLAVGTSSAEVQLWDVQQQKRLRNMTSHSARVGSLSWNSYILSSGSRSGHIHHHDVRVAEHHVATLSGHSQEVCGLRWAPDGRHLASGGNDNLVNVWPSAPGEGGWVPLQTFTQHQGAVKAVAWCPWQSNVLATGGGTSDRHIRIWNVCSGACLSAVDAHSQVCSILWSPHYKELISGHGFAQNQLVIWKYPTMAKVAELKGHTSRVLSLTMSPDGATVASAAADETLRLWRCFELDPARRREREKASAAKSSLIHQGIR
# Assay: SF9 cells co-infected with Emi1 and Cdc20 baculoviruses, anti-Emi1 immunoprecipitation, Cdc20 immunoblot
binder,measurement,value
B1,binding result,binds
